{"source": "patent US20240132485A1", "about": "“HETEROCYCLIC CULLIN RING UBIQUITIN LIGASE COMPOUNDS AND USES THEREOF” (CEMM - FORSCHUNGSZENTRUM FÜR MOLEKULARE MEDIZIN GMBH, priority 2020, published 2024)", "key": {"[1]": {"molecular_target": "Nanoluc_DDB1 (N-terminal Nanoluc luciferase, G4S linker, DDB1 (FL)) (UniProt Q16531)", "sequence (Q16531 other isoform, or with tags, fused parts or gaps)": "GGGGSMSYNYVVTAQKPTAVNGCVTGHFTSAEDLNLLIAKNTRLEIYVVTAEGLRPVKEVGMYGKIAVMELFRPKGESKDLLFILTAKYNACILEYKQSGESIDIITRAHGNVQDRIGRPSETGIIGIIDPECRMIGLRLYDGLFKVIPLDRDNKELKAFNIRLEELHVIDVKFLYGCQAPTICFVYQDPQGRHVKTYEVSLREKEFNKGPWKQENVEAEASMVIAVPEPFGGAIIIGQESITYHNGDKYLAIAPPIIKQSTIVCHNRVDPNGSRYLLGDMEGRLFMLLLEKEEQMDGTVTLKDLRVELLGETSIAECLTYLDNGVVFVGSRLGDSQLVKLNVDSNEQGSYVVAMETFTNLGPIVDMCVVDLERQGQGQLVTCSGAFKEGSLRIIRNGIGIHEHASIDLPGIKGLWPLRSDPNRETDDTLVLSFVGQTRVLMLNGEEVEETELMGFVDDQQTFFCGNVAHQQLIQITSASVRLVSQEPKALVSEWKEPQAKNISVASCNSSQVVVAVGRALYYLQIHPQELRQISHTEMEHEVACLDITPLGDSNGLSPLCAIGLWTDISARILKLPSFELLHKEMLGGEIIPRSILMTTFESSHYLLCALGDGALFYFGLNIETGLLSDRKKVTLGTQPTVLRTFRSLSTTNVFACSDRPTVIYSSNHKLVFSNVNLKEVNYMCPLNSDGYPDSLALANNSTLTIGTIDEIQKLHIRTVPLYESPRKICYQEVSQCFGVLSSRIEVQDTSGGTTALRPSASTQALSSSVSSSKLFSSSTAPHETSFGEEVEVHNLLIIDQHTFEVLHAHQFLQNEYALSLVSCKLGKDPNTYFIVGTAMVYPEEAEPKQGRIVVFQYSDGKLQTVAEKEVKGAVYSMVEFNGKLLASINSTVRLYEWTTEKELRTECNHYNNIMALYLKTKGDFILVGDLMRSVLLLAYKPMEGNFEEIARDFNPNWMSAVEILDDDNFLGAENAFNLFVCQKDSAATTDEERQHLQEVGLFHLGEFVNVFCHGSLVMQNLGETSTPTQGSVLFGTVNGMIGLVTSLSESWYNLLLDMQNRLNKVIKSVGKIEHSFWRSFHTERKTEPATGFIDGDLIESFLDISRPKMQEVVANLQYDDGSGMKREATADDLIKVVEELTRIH", "assay": "NanoBRET in HEK293T cells, 10 µM compound Example 3-11; class A = greater than 4-fold increase"}, "[2]": {"molecular_target": "Nanoluc_DDB1 (N-terminal Nanoluc luciferase, G4S linker, DDB1 (FL)) (UniProt Q16531)", "assay": "NanoBRET in HEK293T cells, 10 µM compound Example 3-40; class B = 3-4 fold increase"}, "[3]": {"molecular_target": "Nanoluc_DDB1 (N-terminal Nanoluc luciferase, G4S linker, DDB1 (FL)) (UniProt Q16531)", "assay": "NanoBRET in HEK293T cells, 10 µM compound Example 3-49; class B = 3-4 fold increase"}, "[4]": {"molecular_target": "Nanoluc_DDB1 (N-terminal Nanoluc luciferase, G4S linker, DDB1 (FL)) (UniProt Q16531)", "assay": "NanoBRET in HEK293T cells, 10 µM compound Example 3-64; class A = greater than 4-fold increase"}, "[5]": {"molecular_target": "Nanoluc_DDB1 (N-terminal Nanoluc luciferase, G4S linker, DDB1 (FL)) (UniProt Q16531)", "assay": "NanoBRET in HEK293T cells, 10-point titration of compound Example 3-52; class A = EC50<=0.25 µM"}, "[6]": {"molecular_target": "Nanoluc_DDB1 (N-terminal Nanoluc luciferase, G4S linker, DDB1 (FL)) (UniProt Q16531)", "assay": "NanoBRET in HEK293T cells, 10 µM compound Example 3-3; class D = 1-2 fold increase"}, "[7]": {"molecular_target": "Nanoluc_DDB1 (N-terminal Nanoluc luciferase, G4S linker, DDB1 (FL)) (UniProt Q16531)", "assay": "NanoBRET in HEK293T cells, 10 µM compound Example 3-6; class C = 2-3 fold increase"}, "[8]": {"molecular_target": "Nanoluc_DDB1 (N-terminal Nanoluc luciferase, G4S linker, DDB1 (FL)) (UniProt Q16531)", "assay": "NanoBRET in HEK293T cells, 10-point titration of compound Example 3-62; class A = EC50<=0.25 µM"}, "[9]": {"molecular_target": "Nanoluc_DDB1 (N-terminal Nanoluc luciferase, G4S linker, DDB1 (FL)) (UniProt Q16531)", "assay": "NanoBRET in HEK293T cells, 10-point titration of compound Example 3-50; class A = EC50<=0.25 µM"}, "[10]": {"molecular_target": "Nanoluc_DDB1 (N-terminal Nanoluc luciferase, G4S linker, DDB1 (FL)) (UniProt Q16531)", "assay": "NanoBRET in HEK293T cells, 10 µM compound Example 3-32; class B = 3-4 fold increase"}, "[11]": {"molecular_target": "Nanoluc_DDB1 (N-terminal Nanoluc luciferase, G4S linker, DDB1 (FL)) (UniProt Q16531)", "assay": "NanoBRET in HEK293T cells, 10 µM compound Example 3-15; class D = 1-2 fold increase"}, "[12]": {"molecular_target": "Nanoluc_DDB1 (N-terminal Nanoluc luciferase, G4S linker, DDB1 (FL)) (UniProt Q16531)", "assay": "NanoBRET in HEK293T cells, 10-point titration of compound Example 3-35; class A = EC50<=0.25 µM"}, "[13]": {"molecular_target": "Nanoluc_DDB1 (N-terminal Nanoluc luciferase, G4S linker, DDB1 (FL)) (UniProt Q16531)", "assay": "NanoBRET in HEK293T cells, 10 µM compound Example 3-61; class A = greater than 4-fold increase"}, "[14]": {"molecular_target": "Nanoluc_DDB1 (N-terminal Nanoluc luciferase, G4S linker, DDB1 (FL)) (UniProt Q16531)", "assay": "NanoBRET in HEK293T cells, 10-point titration of compound Example 3-44; class A = EC50<=0.25 µM"}, "[15]": {"molecular_target": "Nanoluc_DDB1 (N-terminal Nanoluc luciferase, G4S linker, DDB1 (FL)) (UniProt Q16531)", "assay": "NanoBRET in HEK293T cells, 10 µM compound Example 3-12; class D = 1-2 fold increase"}, "[16]": {"molecular_target": "Nanoluc_DDB1 (N-terminal Nanoluc luciferase, G4S linker, DDB1 (FL)) (UniProt Q16531)", "assay": "NanoBRET in HEK293T cells, 10 µM compound Example 3-47; class A = greater than 4-fold increase"}, "[17]": {"molecular_target": "Nanoluc_DDB1 (N-terminal Nanoluc luciferase, G4S linker, DDB1 (FL)) (UniProt Q16531)", "assay": "NanoBRET in HEK293T cells, 10 µM compound Example 3-36; class C = 2-3 fold increase"}, "[18]": {"molecular_target": "Nanoluc_DDB1 (N-terminal Nanoluc luciferase, G4S linker, DDB1 (FL)) (UniProt Q16531)", "assay": "NanoBRET in HEK293T cells, 10 µM compound Example 3-56; class C = 2-3 fold increase"}, "[19]": {"molecular_target": "Nanoluc_DDB1 (N-terminal Nanoluc luciferase, G4S linker, DDB1 (FL)) (UniProt Q16531)", "assay": "NanoBRET in HEK293T cells, 10 µM compound Example 3-1; class B = 3-4 fold increase"}, "[20]": {"molecular_target": "Nanoluc_DDB1 (N-terminal Nanoluc luciferase, G4S linker, DDB1 (FL)) (UniProt Q16531)", "assay": "NanoBRET in HEK293T cells, 10 µM compound Example 3-33; class A = greater than 4-fold increase"}, "[21]": {"molecular_target": "Nanoluc_DDB1 (N-terminal Nanoluc luciferase, G4S linker, DDB1 (FL)) (UniProt Q16531)", "assay": "NanoBRET in HEK293T cells, 10 µM compound Example 3-4; class A = greater than 4-fold increase"}, "[22]": {"molecular_target": "Nanoluc_DDB1 (N-terminal Nanoluc luciferase, G4S linker, DDB1 (FL)) (UniProt Q16531)", "assay": "NanoBRET in HEK293T cells, 10 µM compound Example 3-51; class B = 3-4 fold increase"}, "[23]": {"molecular_target": "Nanoluc_DDB1 (N-terminal Nanoluc luciferase, G4S linker, DDB1 (FL)) (UniProt Q16531)", "assay": "NanoBRET in HEK293T cells, 10 µM compound Example 3-63; class B = 3-4 fold increase"}, "[24]": {"molecular_target": "Nanoluc_DDB1 (N-terminal Nanoluc luciferase, G4S linker, DDB1 (FL)) (UniProt Q16531)", "assay": "NanoBRET in HEK293T cells, 10 µM compound Example 3-25; class B = 3-4 fold increase"}, "[25]": {"molecular_target": "Nanoluc_DDB1 (N-terminal Nanoluc luciferase, G4S linker, DDB1 (FL)) (UniProt Q16531)", "assay": "NanoBRET in HEK293T cells, 10 µM compound Example 3-18; class C = 2-3 fold increase"}}}
{"substance": "HaloTag_CDK12 (N-terminal HaloTag, G4S linker, CDK12 (713-1052)) (from UniProt Q9NYV4 713-1052) (enzyme)", "values": [{"measurement": "NanoBRET fold increase", "setting": "[1]", "result": "> 4", "unit": "fold"}, {"measurement": "NanoBRET fold increase", "setting": "[2]", "result": "3 to 4", "unit": "fold"}, {"measurement": "NanoBRET fold increase", "setting": "[3]", "result": "3 to 4", "unit": "fold"}, {"measurement": "NanoBRET fold increase", "setting": "[4]", "result": "> 4", "unit": "fold"}, {"measurement": "EC50", "setting": "[5]", "result": "< 0.25", "unit": "µM"}, {"measurement": "NanoBRET fold increase", "setting": "[6]", "result": "1 to 2", "unit": "fold"}, {"measurement": "NanoBRET fold increase", "setting": "[7]", "result": "2 to 3", "unit": "fold"}, {"measurement": "EC50", "setting": "[8]", "result": "< 0.25", "unit": "µM"}, {"measurement": "EC50", "setting": "[9]", "result": "< 0.25", "unit": "µM"}, {"measurement": "NanoBRET fold increase", "setting": "[10]", "result": "3 to 4", "unit": "fold"}, {"measurement": "NanoBRET fold increase", "setting": "[11]", "result": "1 to 2", "unit": "fold"}, {"measurement": "EC50", "setting": "[12]", "result": "< 0.25", "unit": "µM"}, {"measurement": "NanoBRET fold increase", "setting": "[13]", "result": "> 4", "unit": "fold"}, {"measurement": "EC50", "setting": "[14]", "result": "< 0.25", "unit": "µM"}, {"measurement": "NanoBRET fold increase", "setting": "[15]", "result": "1 to 2", "unit": "fold"}, {"measurement": "NanoBRET fold increase", "setting": "[16]", "result": "> 4", "unit": "fold"}, {"measurement": "NanoBRET fold increase", "setting": "[17]", "result": "2 to 3", "unit": "fold"}, {"measurement": "NanoBRET fold increase", "setting": "[18]", "result": "2 to 3", "unit": "fold"}, {"measurement": "NanoBRET fold increase", "setting": "[19]", "result": "3 to 4", "unit": "fold"}, {"measurement": "NanoBRET fold increase", "setting": "[20]", "result": "> 4", "unit": "fold"}, {"measurement": "NanoBRET fold increase", "setting": "[21]", "result": "> 4", "unit": "fold"}, {"measurement": "NanoBRET fold increase", "setting": "[22]", "result": "3 to 4", "unit": "fold"}, {"measurement": "NanoBRET fold increase", "setting": "[23]", "result": "3 to 4", "unit": "fold"}, {"measurement": "NanoBRET fold increase", "setting": "[24]", "result": "3 to 4", "unit": "fold"}, {"measurement": "NanoBRET fold increase", "setting": "[25]", "result": "2 to 3", "unit": "fold"}]}
